From patent US20230212554A1 (published 2023)

Key:
[1] = biological target: T1, NP of A/California/07/2009(H1N1/H1S) (influenza A virus, NYMC X-181 derived …); assay: ELISA on virus-infected fixed MDCK cells
[2] = biological target: T1, NP of A/California/07/2009(H1N1/H1S); assay: sandwich ELISA, capture IgG; NP of lysed virus titrated; HRP-NP16 detection
[3] = biological target: T1, NP of A/California/07/2009(H1N1/H1S); assay: sandwich ELISA, capture IgG; NP of lysed virus titrated; HRP-NP17 detection

T1 sequence (P03466 whole entry): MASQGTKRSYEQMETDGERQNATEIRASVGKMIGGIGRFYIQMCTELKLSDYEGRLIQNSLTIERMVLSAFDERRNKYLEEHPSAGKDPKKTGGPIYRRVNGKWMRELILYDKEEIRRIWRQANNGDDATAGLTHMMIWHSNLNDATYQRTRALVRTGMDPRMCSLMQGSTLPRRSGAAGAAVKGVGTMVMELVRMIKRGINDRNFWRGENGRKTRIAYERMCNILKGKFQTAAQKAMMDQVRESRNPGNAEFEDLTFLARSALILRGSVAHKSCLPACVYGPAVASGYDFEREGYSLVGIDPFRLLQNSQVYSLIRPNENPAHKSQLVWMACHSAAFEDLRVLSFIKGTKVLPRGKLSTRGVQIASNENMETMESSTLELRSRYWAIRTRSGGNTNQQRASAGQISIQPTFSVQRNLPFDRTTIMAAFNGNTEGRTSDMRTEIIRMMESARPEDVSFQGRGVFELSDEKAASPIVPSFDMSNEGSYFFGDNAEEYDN

Row | Binder | EC50 [1] | EC50 [2] | EC50 [3]
1 | NP21 (antibody, V domains shown) VH: EVQLVESGGGLVQPGGSLRLSCAASGFTINGYGIHWVRQAPGKGLEWVAGIWPYGGSTFYADSVKGRFTISADTSKNTAYLQMNSLRAEDTAVYYCARFYNNHGGIMDYWGQGTLVTVSS VL: DIQMTQSPSSLSASVGDRVTITCRASQDVYFYVAWYQQKPGKAPKLLIYGSRWLYSGVPSRFSGSGSGTDFTLTISSLQPEDFATYYCQQYSNFPVTFGQGTKVEIKR | 0.73 nM | 2.67 nM | 0.815 nM
2 | NP4 (antibody, V domains shown) VH: EVQLVESGGGLVQPGGSLRLSCAASGFTISNSSIHWVRQAPGKGLEWVAGIGPSGGYTFYADSVKGRFTISADTSKNTAYLQMNSLRAEDTAVYYCARFHSHNSYYSYSHYGYMDYWGQGTLVTVSS VL: DIQMTQSPSSLSASVGDRVTITCRASQDVGWGVAWYQQKPGKAPKLLISGPSSLYSGVPSRFSGSGSGTDFTLTISSLQPEDFATYYCQQYFNYPITFGQGTKVEIKR | 4.02 nM | 2.11 nM | 0.862 nM
3 | NP14 (antibody, V domains shown) VH: EVQLVESGGGLVQPGGSLRLSCAASGFTIDNGGIHWVRQAPGKGLEWVASIWPSWGSTSYADSVKGRFTISADTSKNTAYLQMNSLRAEDTAVYYCARFNFGVFGVMDYWGQGTLVTVSS VL: DIQMTQSPSSLSASVGDRVTITCRASQDVDNDVAWYQQKPGKAPKLLIYGPRGLYSGVPSRFSGSGSGTDFTLTISSLQPEDFATYYCQQYSSWPLTFGQGTKVEIKR | 3.43 nM |  | 
4 | NP5 (antibody, V domains shown) VH: EVQLVESGGGLVQPGGSLRLSCAASGFTISNGSIHWVRQAPGKGLEWVAGIWPSGGSTSYADSVKGRFTISADTINNSAYLQMNSLRAEDTAVYYCARWNYWGQGTLVTVSS VL: DIQMTQSPSSLSASVGDRVTITCRASQDVGWSVAWYQQKPGKAPKLLIYGSRWLYSGVPSRFSGSGSGTDFTLTISSLQPEDFATYYCQQGYNGPLTFGQGTKVEIKR |  | 3.32 nM | 0.918 nM
5 | NP18 (antibody, V domains shown) VH: EVQLVESGGGLVQPGGSLRLSCAASGFTISGGGIHWVRQAPGKGLEWVASIWPSWGSTSYADSVKGRFTISADTSKNTAYLQMNSLRAEDTAVYYCARFHNGGFLVMDYWGQGTLVTVSS VL: DIQMTQSSSSLSASVGDRVTITCRASQDVGYYVAWYQQKPGKAPKLLIYGPRFLYSGVPSRFSGSGSGTDFTLTISSLQPEDFATYYCQQYSNWPITFGQGTKVEIKR | 0.168 nM |  | 
6 | NP6 (antibody, V domains shown) VH: EVQLVESGGGLVQPGGSLRLSCAASGFTINDGSIHWVRQAPGKGLEWVAGIGPFGGFTYYADSVKGRFTISADTSKNTAYLQMNSLRAEDTAVYYCARSGYSGSFDYWGQGTLVTVSS VL: DIQMTQSPSSLSASVGDRVTITCRASQDVYFGVAWYQQKPGKAPKLLIYGTSYLYSGVPSRFSGSGSGTDFTLTISSLQPEDFATYYCQQFSNWPITFGQGTKVEIKR | 6.46 nM | 3.12 nM | 3.07 nM
7 | NP19 (antibody, V domains shown) VH: EVQLVESGGGLVQPGGSLRLSCAASGFTISSWGIHWVRQAPGKGLEWVAGIGPFWGYTSYADSVKGRFTISADTSKNTAYLQMNSLRAEDTAVYYCARFGVDNYGYMDYWGQGTLVTVSS VL: DIQMTQSPSSLSASVGDRVTITCRASQDVSGWVAWYQQKPGKAPKLLISWSTGLYSGVPSRFSGSGSGTDFTLTISSLQPEDFATYYCQQYFNFPVTFGQGTKVEIKR | 0.304 nM | 5.37 nM | 0.863 nM
8 | NP15 (antibody, V domains shown) VH: EVQLVESGGGLVQPGGSLRLSCAASGFTISNWYIHWVRQAPGKGLEWVAGIGPYGGSTYYADSVKGRFTISADTSKNTAYLQMNSLRAEDTAVYYCARFHWDHLHGMDYWGQGTLVTVSS VL: DIQMTQSPSSLSASVGDRVTITCRASQDVDNNVAWYQQKPGKAPKLLISYSTGLYSGVPSRFSGSGSGTDFTLTISSLQPEDFATYYCQQYWNYPITFGQGTKVEIKR | 0.249 nM | 2.79 nM | 0.806 nM
9 | NP3 (antibody, V domains shown) VH: EVQLVESGGGLVQPGGSLRLSCAASGFTISNYGIHWVRQAPGKGLEWVAGIWPFGGFTSYADSVKGRFTISADTSKNTAYLQMNSLRAEDTAVYYCARFHWNDHGYMDYWGQGTLVTVSS VL: DIQMTQSPSSLSASVGDRVTITCRASQDVGWYVAWYQQKPGKAPKLLIYSTTGLYSGVPSRFSGSGSGTDFTLTISSLQPEDFATYYCQQYYNYPITFGQGTKVEIKR | 0.55 nM | 1.96 nM | 0.834 nM
10 | NP7 (antibody, V domains shown) VH: EVQLVESGGGLVQPGGSLRLSCAASGFTISNGGIHWVRQAPGKGLEWVAGIGPYGGFTSYADSVKGRFTISADTSKNTAYLQMNSLRAEDTAVYYCARFYSNYYGYHGVMDYWGQGTLVTVSS VL: DIQMTQSPSSLSASVGDRVTITCRASQDVFGWVAWYQQKPGKAPKLLISYSASLYSGVPSRFSGSGSGTDFTLTISSLQPEDFATYYCQQYFNYPLTFGQGTKVEIKR |  | 2.36 nM | 0.9 nM
11 | NP16 (antibody, V domains shown) VH: EVQLVESGGGLVQPGGSLRLSCAASGFTIGNSGIHWVRQAPGKGLEWVAWIGPYWGFTSYADSVKGRFTISADTSKNTAYLQMNSLRAEDTAVYYCARFGNHWHLFMDYWGQGTLVTVSS VL: DIQMTQSPSSLSASVGDRVTITCRASQDVGSYVAWYQQKPGKAPKLLISWTTGLYSGVPSRFSGSGSGTDFTLTISSLQPEDFATYYCQQYFSYPVTFGQGTKVEIKR | 0.239 nM | 4.41 nM | 0.919 nM
12 | NP17 (antibody, V domains shown) VH: EVQLVESGGGLVQPGGSLRLSCAASGFTISGGSIHWVRQAPGKGLEWVASIWPFGGSTFYADSVKGRFTISADTSKNTAYLQMNSLRAEDTAVYYCARFGHGHNVIMDYWGQGTLVTVSS VL: DIQMTQSPSSLSASVGDRVTITCRASQDVGYSVAWYQQKPGKAPKLLISSPGGLYSGVPSRFSGSGSGTDFTLTISSLQPEDFATYYCQQYYDYPVTFGQGTKVEIKR | 28.7 nM | 3.28 nM | 1.02 nM
13 | NP10 (antibody, V domains shown) VH: EVQLVESGGGLVQPGGSLRLSCAASGFTIDNGSIHWVRQAPGKGLEWVAWIWPFGGSTSYADSVKGRFTISADTSKNTAYLQMNSLRAEDTAVYYCARSWSSGYDYWGQGTLVTVSS VL: DIQMTQSPSSLSASVGDRVTITCRASQDVSWSVAWYQQKPGKAPKLLISGSTWLYSGVPSRFSGSGSGTDFTLTISSLQPEDFATYYCQQYSNSPITFGQGTKVEIKR |  | 3.3 nM | 0.798 nM
14 | NP9 (antibody, V domains shown) VH: EVQLVESGGGLVQPGGSLRLSCAASGFTINNGWIHWVRQAPGKGLEWVAGIGPYWGFTSYADSVKGRFMISADTSKNTAYLQMNSLRAEDTAVYYCARFDSDHDHHYSYYYYYDNGYMDYWGQGTLVTVSS VL: DIQMTQSPSSLSASVGDRVTITCRASQDVWFSVAWYQQKPGKAPKLLIYGTTSLYSGVPSRFSGSGSGTDFTLTISSLQPEDFATYYCQQYFNYPLTFGQGTKVEIKR | 2.14 nM | 53.9 nM | 
15 | NP8 (antibody, V domains shown) VH: EVQLVESGGGLVQPGGSLRLSCAASGFTINSFGIHWVRQAPGKGLEWVAGIGPFGGSTFYADSVKGRFTISADTSKNTAYLQMNSLRAEDTAVYYCARGFYWFDYWGQGTLVTVSS VL: DIQMTQSPSSLSASVGDRVTITCRASQDVDDSVAWYQQKPGKAPKLLIYWTRYLYSGVPSRFSGSGSGTDFTLTISSLQPEDFATYYCQQGYNYPLTFGQGTKVEIKR |  | 2.33 nM | 0.752 nM
16 | NP13 (antibody, V domains shown) VH: EVQLVESGGGLVQPGGSLRLSCAASGFTINNYGIHWVRQAPGKGLEWVASIGPYGGSTYYADSVKGRFTISADTSKNTAYLQMNSLRAEDTAVYYCARFGYFNWLDMDYWGQGTLVTVSS VL: DIQMTQSPSSLSASVGDRVTITCRASQDVGYWVAWYQQKPGKAPKLLISSASGLYSGVPSRFSGSGSGTDFTLTISSLQPEDFATYYCQQGWDWPITFGQGTKVEIKR | 1.68 nM | 168 nM | 47.9 nM
17 | NP12 (antibody, V domains shown) VH: EVQLVESGGGLVQPGGSLRLSCAASGFTIDNGYIHWVRQAPGKGLEWVASIWPSWGSTYYADSVKGRFTISADTSKNTAYLQMNSLRAEDTAVYYCARGFYYYGDYWGQGTLVTVSS VL: DIQMTQSPSSLSASVGDRVTITCRASQDVGGNVAWYQQKPGKAPKLLISSTAGLYSGVPSRFSGSGSGTDFTLTISSLQPEDFATYYCQQYYDFPLTFGQGTKVEIKR | 6.09 nM |  | 
